The target of this experiment is T1, preassembled pyrene-actin filaments (Gallus gallus, UniProt P68139).
T1 construct: Mince 2 kg of fresh, boneless, skinless chicken breast in a pre-chilled meat grinder; from tissue; host or cells: chicken breast (skeletal) muscle, via acetone powder
The experiment in a line: pyrene actin assay (decrease in fluorescence of filamentous pyrene-actin on addition of cofilin). Type of experiment: biochemical, chicken. To be noted: addition of stoichiometric amounts of cofilin to preassembled pyrene-actin filaments; FIG. 3. The source says:
The effect of cofilin on preassembled pyrene-actin filaments is monitored. Two cofilin activities—binding to actin polymer and enhancing depolymerization—combine to reduce the relative fluorescence intensity. Addition of stoichiometric amounts of cofilin results in a 3-5 fold reduction in fluorescence intensity. In both these assays, any inhibitor will result in an increase in relative fluorescence intensity. For both graphs, the x-axes show cycle number (1 cycle/30 sec) and the y-axes reflect fluorescence in arbitrary units..
Assays for the interaction of A. fumigatus cofilin and any other cofilin with actin in 384-well plates using a fluorescence as the detection means have been developed. […]
Upon addition of cofilin to filamentous pyrene-actin, two well-characterized biochemical activities can be monitored. First, cofilin binds to the filaments and partially quenches the pyrene fluorescence. Second, it induces filament disassembly, further decreasing pyrene fluorescence. The decrease in fluorescence that results when cofilin is added to filamentous actin is monitored (FIG. 3). An inhibitor of the interaction of cofilin with pyrene-actin will result in an increase in fluorescence. […]
Thaw Actin, Pyrene-Actin and Cofilin pellets on ice or at room temp. […] Take readings at OD290. […]
Add 25 ul of sample into each well. […] Take Pyrene-Kinetic readings (Fluorostar setting) at 150 cycles, 360 to […].

From patent US20040138440A1, “Aspergillus fumigatus cofilin” (priority 2004, published 2004) come the findings set out here.

B1: A. fumigatus cofilin: proteins or polypeptides present in A. fumigatus that are capable of binding actin; amino acid sequence SEQ ID NO:2; expressed in E. coli (protein, listed as Aspergillus fumigatus)
chain: MALASGVSIADECITAFNDFRMSGNKANKTKFIIFKIADNKKEVVIDEVSQEEDYEVFRSRLEATKDSKGNPAPRYAVYDVEYDLGGGEGKRSKIVFISWVPSDTPTLWSMIYASTRENLKNALNIHTSIHADDKGDIEWKTVLAEASGGKAGK
modifications: Cofilin sequence
notes: expressed in E. coli
With B1, the “reduction in fluorescence intensity” value is reported as 3-5 fold.
